US20230265151A1, “GIP/GLP1 CO-AGONIST COMPOUNDS” (priority 2020, published 2023)

T1: human GIP receptor (human, UniProt P48546 22-466)
T1 sequence (looked up): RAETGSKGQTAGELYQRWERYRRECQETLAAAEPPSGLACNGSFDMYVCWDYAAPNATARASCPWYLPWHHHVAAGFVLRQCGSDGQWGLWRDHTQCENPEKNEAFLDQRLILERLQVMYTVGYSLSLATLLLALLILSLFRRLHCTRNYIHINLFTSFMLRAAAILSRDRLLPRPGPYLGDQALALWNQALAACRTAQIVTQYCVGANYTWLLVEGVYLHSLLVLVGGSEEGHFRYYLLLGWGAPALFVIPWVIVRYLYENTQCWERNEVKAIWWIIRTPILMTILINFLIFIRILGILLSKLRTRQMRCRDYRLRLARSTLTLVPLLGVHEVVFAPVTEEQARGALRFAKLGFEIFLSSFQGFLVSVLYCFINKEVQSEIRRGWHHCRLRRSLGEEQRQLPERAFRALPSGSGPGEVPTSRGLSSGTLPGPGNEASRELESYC

B1: Example 46 (peptide)
peptide: YXEGTXTSDXSIXLDXKAQXEFIXXLIEGGKSSGAPPPS
modifications: Aib2, αMeF6, 4Pal10, αMeF13, Orn16, Aib20, D-Glu24, αMeY25, K17 and K31: K(AEEA2-(γ-Glu)-CO-(CH2)12-CO2H), C-terminal NH2
B2: Example 47 (peptide)
peptide: YXEGTXTSDXSIXLDXKAQXEXIXXLIEGGKSSGAPPPS
modifications: Aib2, αMeF6, 4Pal10, αMeL13, Orn16, Aib20, αMeF22, D-Glu24, αMeY25, K17 and K31: K(AEEA2-(γ-Glu)-CO-(CH2)12-CO2H), C-terminal NH2
B3: Example 48 (peptide)
peptide: YXEGTXTSDXSIXLDXKAQXEFIXXLIEGGKSSGAPPPS
modifications: Aib2, αMeF6, 4Pal10, αMeL13, Orn16, Aib20, D-Glu24, αMeF25, K17 and K31: K(AEEA2-(γ-Glu)-CO-(CH2)12-CO2H), C-terminal NH2
B4: Example 49 (peptide)
peptide: YXEGTXTSDYXIXLDXKAQXEFIXXLIEGGKSSGAPPPS
modifications: Aib2, αMeF(2F)6, αMeS11, αMeL13, Orn16, Aib20, D-Glu24, αMeY25, K17 and K31: K(AEEA2-(γ-Glu)-CO-(CH2)12-CO2H), C-terminal NH2
B5: Example 50 (peptide)
peptide: YXEGTXTSDYXIXLDXKAQXEFIXXLIEGGKSSGAPPPS
modifications: Aib2, αMeF(2F)6, Aib11, αMeL13, Orn16, Aib20, D-Glu24, αMeY25, K17 and K31: K(AEEA2-(γ-Glu)-CO-(CH2)12-CO2H), C-terminal NH2
B6: Example 51 (peptide)
peptide: YXEGTXTSDXSIXLDXKAQXEFIXXLIEGGKSSGAPPPS
modifications: Aib2, αMeF(2F)6, αMeL10, αMeL13, Orn16, Aib20, D-Glu24, αMeY25, K17 and K31: K(AEEA2-(γ-Glu)-CO-(CH2)12-CO2H), C-terminal NH2
B7: Example 52 (peptide)
peptide: YXEGTXTSDXSIXLDXKAQXEFIXXLIEGGKSSGAPPPS
modifications: Aib2, αMeF(2F)6, αMeV10, αMeL13, Orn16, Aib20, D-Glu24, αMeY25, K17 and K31: K(AEEA2-(γ-Glu)-CO-(CH2)12-CO2H), C-terminal NH2
B8: Example 53 (peptide)
peptide: YXEGTXTSDXSIXLDXKAQXEFIXXLIEGGKSSGAPPPS
modifications: Aib2, αMeF(2F)6, Ac5c10, αMeL13, Orn16, Aib20, D-Glu24, αMeY25, K17 and K31: K(AEEA2-(γ-Glu)-CO-(CH2)12-CO2H), C-terminal NH2
B9: Example 4 (peptide)
peptide: YXEGTXTSDXSIXLDXKAQXEFIXXLIEGGKSSGAPPPS
modifications: Aib2, αMeF(2F)6, 4Pal10, αMeL13, Orn16, Aib20, D-Glu24, αMeY25, K17 and K31: K(AEEA2-(γ-Glu)-(4-(4-tert-butylphenyl)butanoyl)), C-terminal NH2
B10: Example 54 (peptide)
peptide: YXEGTXTSDXSIXLDXKAQXEFIXXLIEGGKSSGAPPPS
modifications: Aib2, αMeF(2F)6, Ac6c10, αMeL13, Orn16, Aib20, D-Glu24, αMeY25, K17 and K31: K(AEEA2-(γ-Glu)-CO-(CH2)12-CO2H), C-terminal NH2
B11: Example 55 (peptide)
peptide: YXEGTXTSDXSIXLDXKAQXEFIXXLIEGGKSSGAPPPS
modifications: Aib2, αMeF(2F)6, Bip10, αMeL13, Orn16, Aib20, D-Glu24, αMeY25, K17 and K31: K(AEEA2-(γ-Glu)-CO-(CH2)12-CO2H), C-terminal NH2
B12: Example 56 (peptide)
peptide: YXEGTXTSDXSIXLDXKAQXEFIXXLIEGGKSSGAPPPS
modifications: Aib2, αMeF(2F)6, 1Nal10, αMeL13, Orn16, Aib20, D-Glu24, αMeY25, K17 and K31: K(AEEA2-(γ-Glu)-CO-(CH2)12-CO2H), C-terminal NH2
B13: Example 57 (peptide)
peptide: YXEGTXTSDXSIXLDXKAQXEFIXXLIEGGKSSGAPPPS
modifications: Aib2, αMeF(2F)6, 2Nal10, αMeL13, Orn16, Aib20, D-Glu24, αMeY25, K17 and K31: K(AEEA2-(γ-Glu)-CO-(CH2)12-CO2H), C-terminal NH2
B14: Example 58 (peptide)
peptide: YXEGTXTSDXSIXLDXKAQXEFIXXLIEGGKSSGAPPPS
modifications: Aib2, αMeF(2F)6, OMeY10, αMeL13, Orn16, Aib20, D-Glu24, αMeY25, K17 and K31: K(AEEA2-(γ-Glu)-CO-(CH2)12-CO2H), C-terminal NH2
B15: Example 59 (peptide)
peptide: YXEGTXTSDXSIXLDXKAQXEFIXXLIEGGKSSGAPPPS
modifications: Aib2, αMeF(2F)6, hTyr10, αMeL13, Orn16, Aib20, D-Glu24, αMeY25, K17 and K31: K(AEEA2-(γ-Glu)-CO-(CH2)12-CO2H), C-terminal NH2
B16: Example 60 (peptide)
peptide: YXEGTXTSDXSIXLDXKAQXEFIXXLIEGGKSSGAPPPS
modifications: Aib2, αMeF(2F)6, Nle10, αMeL13, Orn16, Aib20, D-Glu24, αMeY25, K17 and K31: K(AEEA2-(γ-Glu)-CO-(CH2)12-CO2H), C-terminal NH2
B17: Example 61 (peptide)
peptide: YXEGTXTSDXSIXLDXKAQXEXIXXLIEGGKSSGAPPPS
modifications: Aib2, αMeF(2F)6, 4Pal10, αMeL13, Orn16, Aib20, 2ClPhe22, D-Glu24, αMeY25, K17 and K31: K(AEEA2-(γ-Glu)-CO-(CH2)12-CO2H), C-terminal NH2
B18: Example 62 (peptide)
peptide: YXEGTXTSDXSIXLDXKAQXEXIXXLIEGGKSSGAPPPS
modifications: Aib2, αMeF(2F)6, 4Pal10, αMeL13, Orn16, Aib20, 3ClPhe22, D-Glu24, αMeY25, K17 and K31: K(AEEA2-(γ-Glu)-CO-(CH2)12-CO2H), C-terminal NH2
B19: Example 63 (peptide)
peptide: YXEGTXTSDXSIXLDXKAQXEXIXXLIEGGKSSGAPPPS
modifications: Aib2, αMeF(2F)6, 4Pal10, αMeL13, Orn16, Aib20, 2FPhe22, D-Glu24, αMeY25, K17 and K31: K(AEEA2-(γ-Glu)-CO-(CH2)12-CO2H), C-terminal NH2

What was measured:
Assay in all cases: cell-based or functional assay
human glucagon receptor = human glucagon receptor (human, UniProt P47871 26-477)
human GIP receptor = target: T1, human GIP receptor
human GLP-1 receptor = human GLP-1 receptor (human, UniProt P43220 24-463)

Row | Binder | EC50, cAMP (human glucagon receptor) [nM] | EC50, cAMP (human GIP receptor) [nM] | Emax, cAMP (human GIP receptor) [%] | EC50, cAMP (human GLP-1 receptor) [nM] | Emax, cAMP (human GLP-1 receptor) [%]
1 | B1 | > 9950 | 0.0801 | 89.5 | 3.29 | –
2 | B2 | > 9950 | 0.0138 | – | 1.94 | 87.1
3 | B3 | > 9950 | 0.0182 | – | 1 | –
4 | B4 | > 9950 | 0.0205 | 91 | 0.398 | 97.3
5 | B5 | > 9950 | 0.0168 | 94.7 | 0.273 | –
6 | B6 | > 9950 | 0.11 | – | 0.89 | –
7 | B7 | > 9950 | 0.258 | – | 0.384 | –
8 | B8 | > 9950 | 0.0841 | – | 0.18 | –
9 | B9 | > 9950 | 0.00962 | – | 0.137 | –
10 | B10 | > 9950 | 0.0675 | 113 | 0.538 | –
11 | B11 | > 9950 | 0.0207 | – | 0.154 | –
12 | B12 | > 9950 | 0.0138 | 90.3 | 0.205 | –
13 | B13 | > 9950 | 0.0135 | – | 0.14 | –
14 | B14 | > 9950 | 0.0158 | 89.2 | 0.194 | –
15 | B15 | > 9950 | 0.024 | 89.2 | 0.202 | –
16 | B16 | > 9950 | 0.0126 | – | 0.19 | –
17 | B17 | > 9950 | 0.012 | – | 1.35 | 82.9
18 | B18 | > 9950 | 0.0211 | – | 0.48 | 99.4
19 | B19 | > 9950 | 0.0176 | – | 1.86 | 90.6
